PMC4859069 (2016)

Molecular target: T1, GST-14-3-3ζ (Drosophila melanogaster (Fruit fly), UniProt P29310)
T1 chain: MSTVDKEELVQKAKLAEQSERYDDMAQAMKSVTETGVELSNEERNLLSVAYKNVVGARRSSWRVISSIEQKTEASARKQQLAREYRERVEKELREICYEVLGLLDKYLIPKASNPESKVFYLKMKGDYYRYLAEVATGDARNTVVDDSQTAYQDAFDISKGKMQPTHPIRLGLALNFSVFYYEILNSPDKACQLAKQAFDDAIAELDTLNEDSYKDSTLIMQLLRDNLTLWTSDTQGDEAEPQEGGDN
Test: GST pull-down

B1: MBP-Tctp (protein)
chain: MKIYKDIITGDEMFADTYKMKLVDDVIYEVYGKLITRQGDDIKLEGANASAEEADEGTDITSESGVDVVLNHRLTECFAFGDKKSYTLYLKDYMKKVLAKLEEKSPDQVDIFKTNMNKAMKDILGRFKELQFFTGESMDCDGMVALVEYREINGDSVPVLMFFKHGLEEEKC
Q: Does B1 bind?
A: binds
